Measured values: IntAct's records for PubMed 25910212

B1: Proton-coupled zinc antiporter SLC30A8 (Homo sapiens), Q8IWU4 (parent)
chain: MEFLERTYLVNDKAAKMYAFTLESVELQQKPVNKDQCPRERPEELESGGMYHCHSGSKPTEKGANEYAYAKWKLCSASAICFIFMIAEVVGGHIAGSLAVVTDAAHLLIDLTSFLLSLFSLWLSSKPPSKRLTFGWHRAEILGALLSILCIWVVTGVLVYLACERLLYPDYQIQATVMIIVSSCAVAANIVLTVVLHQRCLGHNHKEVQANASVRAAFVHALGDLFQSISVLISALIIYFKPEYKIADPICTFIFSILVLASTITILKDFSILLMEGVPKSLNYSGVKELILAVDGVLSVHSLHIWSLTMNQVILSAHVATAASRDSQVVRREIAKALSKSFTMHSLTIQMESPVDQDPDCLFCEDPCD
partner: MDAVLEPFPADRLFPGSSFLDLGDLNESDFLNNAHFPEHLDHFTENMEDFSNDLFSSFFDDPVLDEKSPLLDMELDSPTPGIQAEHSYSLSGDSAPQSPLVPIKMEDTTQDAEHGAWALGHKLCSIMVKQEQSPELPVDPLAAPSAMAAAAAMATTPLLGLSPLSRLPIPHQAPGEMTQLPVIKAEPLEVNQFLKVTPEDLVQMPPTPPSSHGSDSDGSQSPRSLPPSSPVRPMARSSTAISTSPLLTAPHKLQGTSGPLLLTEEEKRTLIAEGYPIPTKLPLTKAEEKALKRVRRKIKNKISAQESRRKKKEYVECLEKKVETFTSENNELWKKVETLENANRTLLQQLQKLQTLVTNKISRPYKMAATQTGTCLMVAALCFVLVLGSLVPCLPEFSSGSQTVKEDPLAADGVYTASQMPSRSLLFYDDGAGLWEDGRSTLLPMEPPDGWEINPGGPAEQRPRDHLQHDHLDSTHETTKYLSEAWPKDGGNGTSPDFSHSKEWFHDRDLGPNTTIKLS
B2: SH2 domain-containing protein 1A (Homo sapiens), O60880 (parent)
chain: MDAVAVYHGKISRETGEKLLLATGLDGSYLLRDSESVPGVYCLCVLYHGYIYTYRVSQTETGSWSAETAPGVHKRYFRKIKNLISAFQKPDQGIVIPLQYPVEKKSSARSTQGTTGIREDPDVCLKAP
B3: Tribbles homolog 3 (Homo sapiens), Q96RU7 (parent)
chain: MRATPLAAPAGSLSRKKRLELDDNLDTERPVQKRARSGPQPRLPPCLLPLSPPTAPDRATAVATASRLGPYVLLEPEEGGRAYQALHCPTGTEYTCKVYPVQEALAVLEPYARLPPHKHVARPTEVLAGTQLLYAFFTRTHGDMHSLVRSRHRIPEPEAAVLFRQMATALAHCHQHGLVLRDLKLCRFVFADRERKKLVLENLEDSCVLTGPDDSLWDKHACPAYVGPEILSSRASYSGKAADVWSLGVALFTMLAGHYPFQDSEPVLLFGKIRRGAYALPAGLSAPARCLVRCLLRREPAERLTATGILLHPWLRQDPMPLAPTRSHLWEAAQVVPDGLGLDEAREEEGDREVVLYG
partner: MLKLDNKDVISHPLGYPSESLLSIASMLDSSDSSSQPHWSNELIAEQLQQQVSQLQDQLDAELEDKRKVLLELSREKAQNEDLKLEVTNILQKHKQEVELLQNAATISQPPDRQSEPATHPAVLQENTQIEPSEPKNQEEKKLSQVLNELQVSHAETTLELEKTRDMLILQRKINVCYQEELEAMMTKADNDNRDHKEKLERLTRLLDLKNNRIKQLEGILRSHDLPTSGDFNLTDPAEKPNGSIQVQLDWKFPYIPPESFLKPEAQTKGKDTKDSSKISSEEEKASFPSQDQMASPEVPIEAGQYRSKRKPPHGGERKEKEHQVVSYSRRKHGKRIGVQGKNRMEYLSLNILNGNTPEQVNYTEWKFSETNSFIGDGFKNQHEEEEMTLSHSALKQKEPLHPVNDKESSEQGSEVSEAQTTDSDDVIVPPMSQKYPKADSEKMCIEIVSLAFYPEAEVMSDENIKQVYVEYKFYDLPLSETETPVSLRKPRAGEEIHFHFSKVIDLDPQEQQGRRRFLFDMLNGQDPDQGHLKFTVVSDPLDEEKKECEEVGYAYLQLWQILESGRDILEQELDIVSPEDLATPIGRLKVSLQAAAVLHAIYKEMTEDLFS
B4: U4/U6 small nuclear ribonucleoprotein Prp3 (Homo sapiens), O43395 (parent)
chain: MALSKRELDELKPWIEKTVKRVLGFSEPTVVTAALNCVGKGMDKKKAADHLKPFLDDSTLRFVDKLFEAVEEGRSSRHSKSSSDRSRKRELKEVFGDDSEISKESSGVKKRRIPRFEEVEEEPEVIPGPPSESPGMLTKLQIKQMMEAATRQIEERKKQLSFISPPTPQPKTPSSSQPERLPIGNTIQPSQAATFMNDAIEKARKAAELQARIQAQLALKPGLIGNANMVGLANLHAMGIAPPKVELKDQTKPTPLILDEQGRTVDATGKEIELTHRMPTLKANIRAVKREQFKQQLKEKPSEDMESNTFFDPRVSIAPSQRQRRTFKFHDKGKFEKIAQRLRTKAQLEKLQAEISQAARKTGIHTSTRLALIAPKKELKEGDIPEIEWWDSYIIPNGFDLTEENPKREDYFGITNLVEHPAQLNPPVDNDTPVTLGVYLTKKEQKKLRRQTRREAQKELQEKVRLGLMPPPEPKVRISNLMRVLGTEAVQDPTKVEAHVRAQMAKRQKAHEEANAARKLTAEQRKVKKIKKLKEDISQGVHISVYRVRNLSNPAKKFKIEANAGQLYLTGVVVLHKDVNVVVVEGGPKAQKKFKRLMLHRIKWDEQTSNTKGDDDEESDEEAVKKTNKCVLVWEGTAKDRSFGEMKFKQCPTENMAREHFKKHGAEHYWDLALSESVLESTD
partner: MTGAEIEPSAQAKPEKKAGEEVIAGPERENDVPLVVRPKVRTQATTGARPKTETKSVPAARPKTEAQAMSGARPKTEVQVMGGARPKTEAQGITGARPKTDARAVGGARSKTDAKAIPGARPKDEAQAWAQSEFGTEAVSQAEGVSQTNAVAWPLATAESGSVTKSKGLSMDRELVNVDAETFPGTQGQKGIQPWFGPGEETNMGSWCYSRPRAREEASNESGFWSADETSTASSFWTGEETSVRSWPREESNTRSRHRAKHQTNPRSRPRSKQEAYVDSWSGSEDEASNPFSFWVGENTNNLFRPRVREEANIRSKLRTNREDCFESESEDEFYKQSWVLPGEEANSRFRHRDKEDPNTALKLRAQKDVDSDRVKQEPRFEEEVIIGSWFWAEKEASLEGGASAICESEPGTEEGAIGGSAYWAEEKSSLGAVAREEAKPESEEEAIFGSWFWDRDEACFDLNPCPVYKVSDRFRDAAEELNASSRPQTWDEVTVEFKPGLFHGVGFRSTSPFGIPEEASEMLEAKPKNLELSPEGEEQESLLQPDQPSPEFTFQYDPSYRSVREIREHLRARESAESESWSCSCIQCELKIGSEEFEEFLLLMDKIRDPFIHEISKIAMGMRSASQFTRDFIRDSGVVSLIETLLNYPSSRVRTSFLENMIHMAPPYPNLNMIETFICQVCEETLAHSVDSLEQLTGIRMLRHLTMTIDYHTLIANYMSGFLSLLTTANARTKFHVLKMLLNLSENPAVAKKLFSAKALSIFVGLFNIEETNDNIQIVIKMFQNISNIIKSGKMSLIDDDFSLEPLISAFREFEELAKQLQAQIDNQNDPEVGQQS
B5: Glutathione S-transferase A2 (Homo sapiens), P09210 (parent)
chain: MAEKPKLHYSNIRGRMESIRWLLAAAGVEFEEKFIKSAEDLDKLRNDGYLMFQQVPMVEIDGMKLVQTRAILNYIASKYNLYGKDIKEKALIDMYIEGIADLGEMILLLPFSQPEEQDAKLALIQEKTKNRYFPAFEKVLKSHGQDYLVGNKLSRADIHLVELLYYVEELDSSLISSFPLLKALKTRISNLPTVKKFLQPGSPRKPPMDEKSLEESRKIFRF
partner: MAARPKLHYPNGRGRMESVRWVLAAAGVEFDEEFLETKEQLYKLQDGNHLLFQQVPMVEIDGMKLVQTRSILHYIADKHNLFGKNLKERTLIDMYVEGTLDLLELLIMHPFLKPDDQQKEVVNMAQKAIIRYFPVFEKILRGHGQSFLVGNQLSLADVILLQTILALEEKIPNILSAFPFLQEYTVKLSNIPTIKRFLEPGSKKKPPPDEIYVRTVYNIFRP

Variants of: B1
Settings: with cr3l1_human CREB3L1, Q96BA8

effect of a mutation on the interaction | Variant
with no effect | R325Q
disrupting interaction strength | R325W

Variants of: B2
Settings: with TNK2, Q07912-2
TNK2, Q07912-2, sequence (Q07912 other isoform, or with tags, fused parts or gaps): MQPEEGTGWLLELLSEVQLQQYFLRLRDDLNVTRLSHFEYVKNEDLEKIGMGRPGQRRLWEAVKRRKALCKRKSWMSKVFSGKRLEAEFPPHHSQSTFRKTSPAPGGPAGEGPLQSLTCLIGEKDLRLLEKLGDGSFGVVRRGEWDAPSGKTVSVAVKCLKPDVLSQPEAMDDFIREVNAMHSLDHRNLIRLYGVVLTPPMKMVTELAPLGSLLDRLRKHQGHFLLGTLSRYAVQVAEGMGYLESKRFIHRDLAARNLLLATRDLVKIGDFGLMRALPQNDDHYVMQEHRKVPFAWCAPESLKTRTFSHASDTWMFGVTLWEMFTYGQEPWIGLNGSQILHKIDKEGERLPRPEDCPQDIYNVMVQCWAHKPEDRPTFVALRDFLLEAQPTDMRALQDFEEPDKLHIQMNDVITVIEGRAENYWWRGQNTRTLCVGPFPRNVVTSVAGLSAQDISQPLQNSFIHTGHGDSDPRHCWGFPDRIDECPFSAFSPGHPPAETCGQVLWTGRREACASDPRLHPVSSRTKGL

effect of a mutation on the interaction | Variant
with no effect | P101L
with no effect | R32T
with no effect | G93D

Variants of: B3
Settings: with RPGRIP1, Q96KN7-4

effect of a mutation on the interaction | Variant
with no effect | Q84R

Variants of: B4
Settings: with gasp2_human GPRASP2, Q96D09

effect of a mutation on the interaction | Variant
with no effect | A489D
with no effect | P493S
with no effect | T494M

Variants of: B5
Settings: with gsta4_human GSTA4, O15217

effect of a mutation on the interaction | Variant
with no effect | P110S
